Results on two molecules are retold here after paper PMC6086839, “Elongator mutation in mice induces neurodegeneration and ataxia-like behavior” (Nature Communications, 2018).

B1: yeast Elongator complex subunit 6 (yElp6) (natural protein, S. cerevisiae)
chain: MGSVQRQDLVLFSDQSVLPAHFFQDSNSHNLFFITHQSCTQPLWMINALVETHVLGSPSSLNESSSSMLPSSTRSHAVLASFIHEQNYFTNSLNKLKIPSNNYNVLDFLSDFIVNNIHNKPRDKILSDVLAKFSAAIQNNPTDTIVIIEQPELLLSLVSGLTCSELNNKFITPLLRQCKVLIIVSNSDIFNIDEYDASVHSSNLQNFYKSSFIKSMINLNLNPLKTGFAKDVTGSLHVCRGGAPIATSNTSLHVVENEYLYLNEKESTKLFYR
notes: Elp6, S. cerevisiae, Q04868; printed without limits (yElp456); source: purified Elp456 complex from yeast subunits

In test [1] the target is T1, yeast Elp4 residues 66-426 (yElp4_(66-426)) (S. cerevisiae, UniProt Q02884 66-426).
T1 construct: source: purified complex
T1 sequence (looked up): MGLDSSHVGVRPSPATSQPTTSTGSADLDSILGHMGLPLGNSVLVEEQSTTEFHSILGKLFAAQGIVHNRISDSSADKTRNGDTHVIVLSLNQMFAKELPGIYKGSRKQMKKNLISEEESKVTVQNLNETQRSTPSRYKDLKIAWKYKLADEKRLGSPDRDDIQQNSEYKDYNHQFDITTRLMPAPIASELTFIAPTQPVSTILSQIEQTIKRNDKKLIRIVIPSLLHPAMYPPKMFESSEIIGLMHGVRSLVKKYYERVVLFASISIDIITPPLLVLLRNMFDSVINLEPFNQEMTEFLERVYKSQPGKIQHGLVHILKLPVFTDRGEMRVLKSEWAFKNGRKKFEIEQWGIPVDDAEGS
Put plainly: co-purification (NiNTA affinity, then SEC); subunits co-expressed in E. coli; truncated complexes purified as complexes and then used for Thermofluor. The note with it: both partners purified.

Test [2] concerns the target B1. Described as above. To be noted: both partners purified.

Consider B1, for which the binding result in test [1] is listed as “binds”.

B2: yeast Elp5 residues 1-270 (yElp5_(1-270)) (domain or fragment, S. cerevisiae, UniProt P38874 1-270, looked up)
chain: MASSSHNPVILLKRILSLTESSPFILCLDSIAQTSYKLIQEFVHQSKSKGNEYPIVYISFETVNKPSYCTQFIDATQMDFVHLVKQIISYLPAATATQAKKHMVIIDSLNYISTEYITRFLSEIASPHCTMVATYHKDIKDENRTVIPDWNNNYPDKLTLLQFMATTIVDIDVVLTGTLDTEEVSELLNEFRIPRGLNNDIFQLRLVNKRKSGRSLEYDFIVNSNTHEYELLSTTKQEEESSSNGLETPEMLQGLTTFNLGTSNKQKLAK
notes: Elp5, yeast, residues 1-270; source: purified complex
Take B2: the binding result in test [1] and in test [2] was “binds” throughout.
